Values belong to the molecule of their own block, whether it stands above or below them.
Assays:
[1] = Phase 1 single and multiple ascending dose trial of inhaled (nebulized) CA28 in healthy volunteers; format: in vivo, human
Method: In the single ascending dose part of the trial, 16 subjects were enrolled in four cohorts of four subjects each.
Four subjects were enrolled in the first cohort of the multiple ascending dose part of the trial. These subjects were to receive 14 consecutive days of treatment with a 60 mg/day dose of the drug. […] The trial was paused and subsequently resumed, with subjects receiving 30 mg/day. […] The trial was then terminated.

complement component C3 [2] = target: T1, complement component C3 (human, UniProt P01024 23-1663); experiment: cell-based or functional assay
complement component C3 [3] = target: T1, complement component C3; experiment: cell-based or functional assay; remark: listed apart in the source

- IC50 (read off the curve) (classical pathway complement activation, C3b deposition ELISA with human plasma) (complement component C3 [3]): ~700 nM
B2: CA28-AEEAc-Lys(mPEG40K-succinyl) (peptide)
peptide: ICVWQDWGAHRCTK
modifications: not fully specified; N-terminal acetyl; (1Me)Trp at position 4; disulfide Cys2-Cys12; AEEAc between Thr13 and Lys; 40 kD mPEG (NOF ME-400CS) on the Lys15 side chain; C-terminal amide

- IC50 (read off the curve) (classical pathway complement activation, C3b deposition ELISA with human plasma) (complement component C3 [3]): ~700 nM
B4: CA28-AEEAc-Lys-(PEG40k) (peptide)
peptide: ICVWQDWGAHRCTK
modifications: not fully specified; N-terminal acetyl; (1Me)Trp at position 4; disulfide Cys2-Cys12; AEEAc between Thr13 and Lys; linear monofunctional 40 kD PEG (NOF ME-400GS) on the Lys side chain; C-terminal amide

- IC50 (read off the curve) (classical pathway complement activation, C3b deposition ELISA with human plasma) (complement component C3 [3]): ~700 nM
B5: CA28-AEEAc-Lys(mPEG40K-hexanoyl) (peptide)
peptide: ICVWQDWGAHRCTK
modifications: not fully specified; N-terminal acetyl; (1Me)Trp at position 4; disulfide Cys2-Cys12; AEEAc between Thr13 and Lys; 40 kD mPEG (NOF ME-400HS) on the Lys15 side chain; C-terminal amide

The next lines start with the molecule.

Molecule: CC[C@H](C)[C@H](NC(C)=O)C(=O)N[C@H]1CSSC[C@@H](C(=O)N[C@H](C(N)=O)[C@@H](C)O)NC(=O)[C@H](CCCNC(=N)N)NC(=O)[C@H](Cc2cnc[nH]2)NC(=O)[C@H](C)NC(=O)CNC(=O)[C@H](Cc2c[nH]c3ccccc23)NC(=O)[C@H](CC(=O)O)NC(=O)[C@H](CCC(N)=O)NC(=O)[C@H](Cc2cn(C)c3ccccc23)NC(=O)[C@H](C(C)C)NC1=O [CA28]
- adverse event ([1]; inhaled 30 mg/day, after 10 days): Another subject developed signs and symptoms consistent with a potential bacterial infection
- adverse event ([1]; inhaled 60 mg/day, after nine days): one subject developed signs and symptoms consistent with a potential bacterial infection

B1: CA28-2TS-BF (peptide)
peptide: ICVWQDWGAHRCTK
modifications: not fully specified; N-terminal acetyl; (1Me)Trp at position 4; disulfide Cys2-Cys12; AEEAc between Thr13 and Lys; Lys side chain linked by a carbamate to one end of a bifunctional linear 40 kD PEG of the TS type; C-terminal amide
- IC50 (read off the curve) (alternative pathway complement activation, LPS-coated plate, C3b deposition ELISA) [B] (complement component C3 [2]): ~400 nM

B3: CA28-AEEAc-Lys(mPEG40K-carbonyl) (peptide)
peptide: ICVWQDWGAHRCTK
modifications: not fully specified; N-terminal acetyl; (1Me)Trp at position 4; disulfide Cys2-Cys12; AEEAc between Thr13 and Lys; 40 kD mPEG (NOF ME-400TS) on the Lys15 side chain; C-terminal amide
- IC50 (read off the curve) (classical pathway complement activation, C3b deposition ELISA with human plasma) (complement component C3 [3]): ~700 nM

Reference: US20260183365A1, “COMBINATION THERAPY FOR C3 INHIBITION” (Apellis Pharmaceuticals, Inc., priority 2016, published 2026)
